How the values were obtained:
[1] = molecular target: Man5GlcNAc2 V1V2 glycopeptide, DMSO-oxidized disulfide-linked dimer (HIV-1 strain AE.CM244 (A244)); assay: SPR kinetics, DMSO-oxidized dimer; reference PG9
[2] = molecular target: Man5GlcNAc2 V1V2 glycopeptide, DMSO-oxidized disulfide-linked dimer (HIV-1 strain AE.CM244 (A244)); assay: SPR kinetics, DMSO-oxidized dimer; reference CH58 UCA
[3] = molecular target: Man3GlcNAc2 V1V2 glycopeptide, DMSO-oxidized disulfide-linked dimer (HIV-1 strain AE.CM244 (A244)); assay: SPR kinetics, mAb captured on anti-IgG, DMSO-oxidized dimer injected; 1:1 Langmuir
[4] = molecular target: Man5GlcNAc2 V1V2 glycopeptide, DMSO-oxidized disulfide-linked dimer (HIV-1 strain AE.CM244 (A244)); assay: as above
[5] = molecular target: Man3GlcNAc2 V1V2 glycopeptide, DMSO-oxidized disulfide-linked dimer (HIV-1 strain AE.CM244 (A244)); assay: SPR kinetics, mAb captured on anti-IgG, DMSO-oxidized dimer injected; faster component of the dissociation phase
[6] = molecular target: Man5GlcNAc2 V1V2 glycopeptide, DMSO-oxidized disulfide-linked dimer (HIV-1 strain AE.CM244 (A244)); assay: as above
[7] = molecular target: Man5GlcNAc2 V1V2 glycopeptide, DMSO-oxidized disulfide-linked dimer (HIV-1 strain AE.CM244 (A244)); assay: SPR kinetics, DMSO-oxidized dimer injected over captured mAb
[8] = molecular target: Man3GlcNAc2 V1V2 (2), not deliberately oxidized (HIV-1 strain AE.CM244 (A244)); assay: SPR, BIAcore 3000, PG9 captured on anti-human Ig Fc, glycopeptide as analyte; 1:1 Langmuir global fit
[9] = molecular target: Man5GlcNAc2 V1V2 (1), not deliberately oxidized (HIV-1 strain AE.CM244 (A244)); assay: as above
[10] = molecular target: Man3GlcNAc2 V1V2 glycopeptide, DMSO-oxidized disulfide-linked dimer (HIV-1 strain AE.CM244 (A244)); assay: SPR, DMSO-oxidized dimer 1-10 µg/mL over CH58 UCA captured on anti-IgG
[11] = molecular target: Man5GlcNAc2 V1V2 glycopeptide, DMSO-oxidized disulfide-linked dimer (HIV-1 strain AE.CM244 (A244)); assay: as above

Substance | fold weaker binding than the mature BnAb [1] [fold] | fold higher affinity than the UCA of CH58 [2] [fold] | kon [3] [M⁻¹ s⁻¹] | kon [4] [M⁻¹ s⁻¹] | Kd [5] [nM] | koff [5] [s⁻¹] | Kd [6] [nM] | koff [6] [s⁻¹] | fold higher affinity than CH01 for the same peptide [7] [fold] | Kd [3] [nM] | koff [3] [s⁻¹] | Kd [4] [nM] | koff [4] [s⁻¹] | Kd [8] [nM] | Kd [9] [nM] | Kd [10] [nM] | Kd [11] [nM]
PG9 UCA (antibody) | 3 | 5 | 5330 | 7410 | 1060 | 0.00566 | 97.6 | 0.000723 |  |  |  |  |  |  |  |  | 
PG9 (antibody) |  |  | 3970 | 9200 |  |  |  |  | 2 | 37.1 | 0.000147 | 29.4 | 0.000271 | 119 | 311 |  | 
CH58 UCA (antibody) |  |  |  |  |  |  |  |  |  |  |  |  |  |  |  | 600 | 500

— patent publication US20150283227A1, “SYNTHETIC ENV PROTEINS” (priority 2012, published 2015)
